Non-standard residues stand in square brackets, D forms with d. Primed or numbered codes have the meaning given here. Gal = galactose on Ser (no sialyl group); Biotin′ = not defined here; Ac6c = NC1(C(=O)O)CCCCC1; PEG = not defined here
Columns and labels:
[1] = tested on: antisera CF1064; conditions: ELISA and lateral flow, FIG. 19
Description: To refine the peptide design and remove peripheral interactions of antibodies not binding the galactose moiety in the peptide, the original sequence MOL136 was truncated to a shorter sequence MOL600: […]

[2] = tested on: sialidase; conditions: 25 U/ml sialidase in PBST for 5 minutes
Protocol: Thus, a capture zone was first formed on each lateral flow test strip using 1.5 mg/ml streptavidin. Then, 3 μl of each peptide (12.5 ng/ml peptide in PBST) was mixed with 10 μl of gold-labelled CF1064 and 15 μl of running buffer (0.5 M Tris at pH 7.5+3% BSA+0.5% Triton X-100) before each sample was run along a separate lateral flow test strip. A negative control in which no peptide was added was also run as a negative control. 15 μl of running buffer wash was then run along each lateral flow test strip.
The procedure described in Example 4B was repeated in the presence of 25 U/ml sialidase. A sample in which sialidase was absent was used as a negative control. A further negative control was run in which no peptide and no sialidase was included in the sample. As a positive control, MOL136 was used in place of MOL136c in the presence of 25 U/ml sialidase.

[3] = tested on: MOL136 and MOL136c; assay: Lateral flow assay with gold-labelled antisera on streptavidin capture zone; assay type: binding; conditions: gold-labelled CF1064; peptide 1.3 ng/ml (38 μg per strip)
Protocol: CF1064 was conjugated to gold particles in optimised conditions (15 μg/ml loading in 10 mM sodium borate buffer; pH 8.0) and assayed against MOL136 and MOL136c at a final concentration of 1.3 ng/ml (38 μg per strip). Thus, a capture zone was first formed on each lateral flow test strip using 1.5 mg/ml streptavidin. Then, 3 μl of each peptide (12.5 ng/ml peptide in PBST) was mixed with 10 μl of gold-labelled CF1064 and 15 μl of running buffer (0.5 M Tris at pH 7.5+3% BSA+0.5% Triton X-100) before each sample was run along a separate lateral flow test strip. A negative control in which no peptide was added was also run as a negative control. 15 μl of running buffer wash was then run along each lateral flow test strip.

[4] = tested on: T1, MOL600c: NH2-Cyc-DAla-Ser[Gal-Sial]-DAla-Arg-PEG-Biotin
T1 sequence: XASAR

[5] = tested on: T2, MOL136c: biotin-PEG-Asp-Glu-DSer-Nva-Cyc-DAla-Ser[Gal-Sial]-DAla-Arg-Phe-DSer-Val-OH
T2 sequence: DESXXASARFSV

[6] = tested on: MOL600; assay: Antibody binding affinity and kinetics by bio-inferometry, peptide immobilised on biosensor by streptavidin/biotin
Protocol: (§1) MOL615 was biotinylated to yield MOL600 (sequence provided in Example 7) and antibody binding affinity and kinetics was measured using bio-inferometry. […] Binding of the antibody was detected by a shift in the reflected light interference.

[7] = target: T3, MOL600: NH2-Cyc-DAla-Ser[Gal]-DAla-Arg-PEG-Biotin (reading uncertain; also: printed as NH2-Cyc-DAla-Ser[Gal]-DAla-Arg-PEG-Biotin); assay: bio-layer interferometry, peptide immobilised on streptavidin biosensor, antibody at 1, 2, 4, 8 or 16 nM
T3 construct: MOL600 is its de-sialylated form; Immobilised on a streptavidin biosensor through biotin
T3 peptide: H-[Ac6c][dA]S(Gal)[dA]R-{PEG-Biotin′}
Protocol: as §1

[8] = antibody at 1, 2, 4, 8 or 16 nM, MOL600 immobilised

NH2—Cyc-DAla-Ser[Gal-Sial]-DAla-Arg-PEG-Biotin [MOL600c]
performance compared with MOL136/MOL136c [1]: significant improvement in performance

biotin-PEG-Asp-Glu-DSer-Nva-Cyc-DAla-Ser[Gal-Sial]-DAla-Arg-Phe-DSer-Val-OH [MOL136c]
lateral flow signal after sialidase incubation [2]: clear positive signal | signal in the capture zone (visible line on the test strip) [3]: little/no signal

NH2—Cyc-DAla-Ser[Gal]-DAla-Arg-PEG-Biotin [MOL600]
performance compared with MOL136/MOL136c [1]: significant improvement in performance

sialidase
lateral flow test line signal [4]: signal has been recovered by spiking in sialidase | lateral flow test line signal with gold-labelled CF1064 [5]: A clear positive signal was observed in respect of MOL136c incubated in the presence of 25 U/ml sialidase in PBST for 5 minutes

biotin-PEG-Asp-Glu-DSer-Nva-Cyc-DAla-Ser[Gal]-DAla-Arg-Phe-DSer-Val-OH [MOL136]
signal in the capture zone (visible line on the test strip) [3]: clearly detected

B1: antibody 125.1: rabbit monoclonal antibody, heavy chain SEQ ID NO: 7, light chain SEQ ID NO: 8, specific for Cyc-DAla-Ser[Gal]-DAla-Arg (antibody, listed as Oryctolagus cuniculus)
heavy: QSVEESGGRLVTPGTPLTLTCTVSGFSLSSYSMDWVRQAPGKGLEWVGGITTTLHTFYATWAKGRFTISKTSSTTVDLKMTSLTTDDAATYFCARGGSSVIWGPGTLVTVSSGQPKAPSVFPLAPCCGDTPSSTVTLGCLVKGYLPEPVTVTWNSGTLTNGVRTFPSVRQSSGLYSLSSVVSVTSSSQPVTCNVAHPATNTKVDKTVAPSTCSKPTCPPPELLGGPSVFIFPPKPKDTLMISRTPEVTCVVVDVSEDDPEVQFTWYINNEQVRTARPPLREQQFNSTIRVVSTLPIAHEDWLRGKEFKCKVHNKALPAPIEKTISKARGQPLEPKVYTMGPPREELSSRSVSLTCMINGFYPSDISVEWEKNGKAEDNYKTTPAVLDSDGSYFLYSKLSVPTSEWQRGDVFTCSVMHEALHNHYTQKSISRSPG
light: ALVMTQTPSPVSAAVGGTVTISCQSSQSVYGNNHLNWHQQKRGQPPKQLIGSASRLASGVPSRFKGSGSGTQFTLTISGVQCDDAATYYCQGSYYNGAWYVAFGGGTELEIKRDPVAPSVLLFPPSKEELTTGTATIVCVANKFYPSDITVTWKVDGTTQQSGIENSKTPQSPEDNTYSLSSTLSLTSAQYNSHSVYTCEVVQGSASPIVQSFNRGDC
binding specificity for MOL600 compared to the sialylated form MOL600c ([6]; FIG. 27): clearly specific for MOL600 | Koff [6, 8]: 0.000427 s⁻¹ | Kon [6, 8]: 54080 M⁻¹ s⁻¹

B2: monoclonal antibody 125.1 (antibody, V domains shown)
VH: QSVEESGGRLVTPGTPLTLTCTVSGFSLSSYSMDWVRQAPGKGLEWVGGITTTLHTFYATWAKGRFTISKTSSTTVDLKMTSLTTDDAATYFCARGGSSVIWGPGTLVTVSS
VL: ALVMTQTPSPVSAAVGGTVTISCQSSQSVYGNNHLNWHQQKRGQPPKQLIGSASRLASGVPSRFKGSGSGTQFTLTISGVQCDDAATYYCQGSYYNGAWYVAFGGGTELEIKR
modifications: Pyro-Glu(Q) at N-terminal of heavy chain; N-linked glycosylation at constant region N@285; additional O-linked glycosylation site between positions 213 and 216 (partly occupied); C-terminal lysine eliminated
notes: Rabbit monoclonal from immunisation with KLH-MOL616; Gamma heavy chain and Kappa light chain
Kd [7]: 7.9 nM | koff [7]: 0.000427 s⁻¹ | kon [7]: 54100 M⁻¹ s⁻¹

Reference: patent publication US20210293791A1, “BACTERIAL VAGINOSIS DIAGNOSTIC” (MOLOGIC LTD, priority 2018, published 2021)
